Reference: publication PMC5518211

What was measured:
[1] = molecular target: Calmodulin labeled with Cyanine5 (not stated (human brain CaM or recombinant bovine CaM bought)); assay: MST
[2] = molecular target: Calmodulin (not stated (human brain CaM or recombinant bovine CaM bought)) (UniProt P0DP23); assay: SPR

Sequence of Full-length recombinant human neurogranin with a His-tag at the N-terminus (Q92686 whole entry): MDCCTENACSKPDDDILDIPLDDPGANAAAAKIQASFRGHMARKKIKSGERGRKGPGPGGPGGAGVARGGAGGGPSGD

Row | Kd [1] [nM] | Kd [2] [nM] | Substance
1 | 890 |  | Full-length recombinant human neurogranin with a His-tag at the N-terminus (from UniProt Q92686) (natural protein)
2 |  | 14000 | IQ-motif containing peptide of neurogranin (Ng 27-50) (from UniProt Q92686 27-50)
3 | 190 |  | Peptide corresponding to the CaM-binding region of CaMKIIα (CaMKII 290-309) (from UniProt Q9UQM7 290-309)
